# B1: GpH7-B3 variant E333_04F/GpL16-k0 (antibody, human IgG1, kappa)
# heavy: not shown
# light: DIVMTQSPLSLPVTPGEPASISCQASESLVHSNRNTYLHWYLQKPGQSPQLLIYKVSNRFSGVPDRFSGSGSGTDFTLKISRVEAEDVGVYYCSQNTHVPPTFGQGTKVEIERTVAAPSVFIFPPSDEQLKSGTASVVCLLNNFYPREAKVQWKVDNALQSGNSQESVTEQDSKDSTYSLSSTLTLSKADYEKHKVYACEVTHQGLSSPVTKSFNRGEC
# notes: also called Ho Ab E333_04F
# B2: GpH7-B3 variant V266_08L/GpL16-k0 (antibody, human IgG1, kappa)
# heavy: not shown
# light: B1 light
# notes: also called Ho Ab V266_08L
# B3: GpH7-B3 variant S298_14T/GpL16-k0 (antibody, human IgG1, kappa)
# heavy: not shown
# light: B1 light
# notes: also called Ho Ab S298_14T
# B4: GpH7-B3 variant K326_07I/GpL16-k0 (antibody, human IgG1, kappa)
# heavy: not shown
# light: B1 light
# notes: also called Ho Ab K326_07I
# B5: GpH7-B3-01-15Y/GpL16-k0 (antibody, human IgG1, kappa)
# heavy: not shown
# light: B1 light
# notes: also called Ho Ab L234_15Y; GpH7-B3 variant L234_15Y/GpL16-k0
# B6: GpH7-B3 variant I336_03V/GpL16-k0 (antibody, human IgG1, kappa)
# heavy: not shown
# light: B1 light
# notes: also called Ho Ab I336_03V
# B7: GpH7-B3 variant T335_20W/GpL16-k0 (antibody, human IgG1, kappa)
# heavy: not shown
# light: B1 light
# notes: also called Ho Ab T335_20W
# B8: GpH7-B3 variant E333_13S/GpL16-k0 (antibody, human IgG1, kappa)
# heavy: not shown
# light: B1 light
# notes: also called Ho Ab E333_13S
# B9: GpH7-B3 variant T335_16H/GpL16-k0 (antibody, human IgG1, kappa)
# heavy: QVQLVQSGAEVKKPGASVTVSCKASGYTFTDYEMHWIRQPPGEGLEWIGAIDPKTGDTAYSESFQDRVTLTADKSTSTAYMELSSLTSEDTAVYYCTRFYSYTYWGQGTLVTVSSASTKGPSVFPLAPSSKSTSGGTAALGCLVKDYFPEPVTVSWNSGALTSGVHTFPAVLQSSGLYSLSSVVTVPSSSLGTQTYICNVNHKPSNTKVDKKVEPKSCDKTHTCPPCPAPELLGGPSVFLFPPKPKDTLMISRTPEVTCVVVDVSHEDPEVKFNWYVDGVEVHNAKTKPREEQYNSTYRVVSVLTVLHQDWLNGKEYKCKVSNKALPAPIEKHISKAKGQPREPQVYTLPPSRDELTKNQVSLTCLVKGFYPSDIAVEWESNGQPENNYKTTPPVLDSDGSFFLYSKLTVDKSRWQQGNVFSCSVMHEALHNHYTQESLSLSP
# light: B1 light
# notes: also called Ho Ab T335_16H
# B10: GpH7-B3 variant S324_02A/GpL16-k0 (antibody, human IgG1, kappa)
# heavy: not shown
# light: B1 light
# notes: also called Ho Ab S324_02A
# B11: GpH7-B3 variant Q295_14T/GpL16-k0 (antibody, human IgG1, kappa)
# heavy: not shown
# light: B1 light
# notes: also called Ho Ab Q295_14T
# B12: GpH7-B3 variant S337_15Y/GpL16-k0 (antibody, human IgG1, kappa)
# heavy: not shown
# light: B1 light
# notes: also called Ho Ab S337_15Y
# B13: GpH7-B3 variant I332_06M/GpL16-k0 (antibody, human IgG1, kappa)
# heavy: not shown
# light: B1 light
# notes: also called Ho Ab I332_06M
# B14: GpH7-B3 variant H268_02A/GpL16-k0 (antibody, human IgG1, kappa)
# heavy: not shown
# light: B1 light
# notes: also called Ho Ab H268_02A
# B15: GpH7-B3 variant S337_14T/GpL16-k0 (antibody, human IgG1, kappa)
# heavy: not shown
# light: B1 light
# notes: also called Ho Ab S337_14T
# B16: GpH7-B3 variant S337_09D/GpL16-k0 (antibody, human IgG1, kappa)
# heavy: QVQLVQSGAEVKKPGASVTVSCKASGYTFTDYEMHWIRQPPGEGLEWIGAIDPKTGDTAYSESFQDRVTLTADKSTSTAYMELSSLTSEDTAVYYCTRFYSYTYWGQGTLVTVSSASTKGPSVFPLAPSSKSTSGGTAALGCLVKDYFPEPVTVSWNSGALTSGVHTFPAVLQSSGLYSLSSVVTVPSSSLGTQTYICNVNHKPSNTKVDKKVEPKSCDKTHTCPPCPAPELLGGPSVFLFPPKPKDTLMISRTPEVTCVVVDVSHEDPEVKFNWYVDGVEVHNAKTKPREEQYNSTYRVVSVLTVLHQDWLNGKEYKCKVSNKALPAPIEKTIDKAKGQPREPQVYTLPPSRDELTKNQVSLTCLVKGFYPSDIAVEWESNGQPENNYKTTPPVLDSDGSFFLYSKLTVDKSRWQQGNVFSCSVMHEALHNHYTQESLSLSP
# light: B1 light
# notes: also called Ho Ab S337_09D
# B17: GpH7-B3 variant L234_04F/GpL16-k0 (antibody, human IgG1, kappa)
# heavy: not shown
# light: B1 light
# notes: also called Ho Ab L234_04F
# B18: GpH7-B3 variant T335_15Y/GpL16-k0 (antibody, human IgG1, kappa)
# heavy: not shown
# light: B1 light
# notes: also called Ho Ab T335_15Y
# B19: GpH7-B3 variant T335_10E/GpL16-k0 (antibody, human IgG1, kappa)
# heavy: not shown
# light: B1 light
# notes: also called Ho Ab T335_10E
# B20: GpH7-B3 variant I336_18N/GpL16-k0 (antibody, human IgG1, kappa)
# heavy: not shown
# light: B1 light
# notes: also called Ho Ab I336_18N
# B21: GpH7-B3 variant P271_01G/GpL16-k0 (antibody, human IgG1, kappa)
# heavy: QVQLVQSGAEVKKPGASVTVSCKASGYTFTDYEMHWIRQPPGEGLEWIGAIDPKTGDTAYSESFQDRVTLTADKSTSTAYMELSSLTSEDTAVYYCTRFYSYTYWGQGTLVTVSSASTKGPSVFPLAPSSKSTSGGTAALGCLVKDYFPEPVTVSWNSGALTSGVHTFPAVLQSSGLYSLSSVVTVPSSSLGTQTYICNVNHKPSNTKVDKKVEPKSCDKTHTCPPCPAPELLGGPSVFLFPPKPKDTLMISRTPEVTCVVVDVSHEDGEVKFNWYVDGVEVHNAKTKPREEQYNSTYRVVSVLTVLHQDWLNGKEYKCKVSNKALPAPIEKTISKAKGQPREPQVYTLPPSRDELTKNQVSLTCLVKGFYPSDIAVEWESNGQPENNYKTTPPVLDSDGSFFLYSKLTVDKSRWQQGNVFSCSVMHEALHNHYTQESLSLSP
# light: B1 light
# notes: also called Ho Ab P271_01G
# B22: GpH7-B3 variant P238_10E/GpL16-k0 (antibody, human IgG1, kappa)
# heavy: not shown
# light: B1 light
# notes: also called Ho Ab P238_10E
# B23: GpH7-B3 variant S324_15Y/GpL16-k0 (antibody, human IgG1, kappa)
# heavy: not shown
# light: B1 light
# notes: also called Ho Ab S324_15Y
# B24: GpH7-B3 variant S337_18N/GpL16-k0 (antibody, human IgG1, kappa)
# heavy: not shown
# light: B1 light
# notes: also called Ho Ab S337_18N
# B25: GpH7-B3 variant E333_20W/GpL16-k0 (antibody, human IgG1, kappa)
# heavy: not shown
# light: B1 light
# notes: also called Ho Ab E333_20W
# B26: GpH7-B3 variant T335_07I/GpL16-k0 (antibody, human IgG1, kappa)
# heavy: not shown
# light: B1 light
# notes: also called Ho Ab T335_07I
# B27: GpH7-B3 variant S337_10E/GpL16-k0 (antibody, human IgG1, kappa)
# heavy: not shown
# light: B1 light
# notes: also called Ho Ab S337_10E
# B28: GpH7-B3 variant I332_01G/GpL16-k0 (antibody, human IgG1, kappa)
# heavy: not shown
# light: B1 light
# notes: also called Ho Ab I332_01G
# B29: GpH7-B16/GpL16-k0 (antibody, human IgG1, kappa)
# heavy: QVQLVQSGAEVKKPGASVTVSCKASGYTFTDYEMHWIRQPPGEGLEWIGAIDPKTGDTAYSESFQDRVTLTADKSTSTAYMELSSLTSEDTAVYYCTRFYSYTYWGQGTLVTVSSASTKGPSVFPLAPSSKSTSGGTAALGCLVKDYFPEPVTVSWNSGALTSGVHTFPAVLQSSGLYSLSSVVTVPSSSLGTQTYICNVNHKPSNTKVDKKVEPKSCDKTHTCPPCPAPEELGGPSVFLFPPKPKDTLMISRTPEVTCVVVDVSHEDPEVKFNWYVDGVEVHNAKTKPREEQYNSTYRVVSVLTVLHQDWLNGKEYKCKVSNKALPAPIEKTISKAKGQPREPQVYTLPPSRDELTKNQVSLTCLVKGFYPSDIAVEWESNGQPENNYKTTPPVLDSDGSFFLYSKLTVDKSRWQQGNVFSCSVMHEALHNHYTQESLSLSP
# light: B1 light
# notes: also called Ho Ab L234_10E; GpH7-B3 variant L234_10E/GpL16-k0
# B30: GpH7-B3 variant L234_20W/GpL16-k0 (antibody, human IgG1, kappa)
# heavy: not shown
# light: B1 light
# notes: also called Ho Ab L234_20W
# B31: GpH7-B3 variant I336_02A/GpL16-k0 (antibody, human IgG1, kappa)
# heavy: not shown
# light: B1 light
# notes: also called Ho Ab I336_02A
# B32: GpH7-B3 variant S267_09D/GpL16-k0 (antibody, human IgG1, kappa)
# heavy: not shown
# light: B1 light
# notes: also called Ho Ab S267_09D
# B33: GpH7-B3 variant T335_13S/GpL16-k0 (antibody, human IgG1, kappa)
# heavy: not shown
# light: B1 light
# notes: also called Ho Ab T335_13S
# B34: GpH7-B3 variant S324_16H/GpL16-k0 (antibody, human IgG1, kappa)
# heavy: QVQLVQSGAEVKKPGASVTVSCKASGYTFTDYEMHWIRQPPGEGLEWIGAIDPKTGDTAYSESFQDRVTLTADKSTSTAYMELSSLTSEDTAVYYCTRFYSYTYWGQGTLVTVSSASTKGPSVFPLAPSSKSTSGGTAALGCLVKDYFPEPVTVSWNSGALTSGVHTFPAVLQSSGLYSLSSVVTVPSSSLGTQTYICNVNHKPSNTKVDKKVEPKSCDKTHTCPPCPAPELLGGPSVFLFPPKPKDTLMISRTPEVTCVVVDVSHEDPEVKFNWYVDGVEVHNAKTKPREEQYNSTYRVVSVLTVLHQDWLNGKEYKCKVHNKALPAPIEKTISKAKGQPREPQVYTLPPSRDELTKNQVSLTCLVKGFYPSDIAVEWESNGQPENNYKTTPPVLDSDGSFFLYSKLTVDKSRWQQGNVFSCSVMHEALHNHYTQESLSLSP
# light: B1 light
# notes: also called Ho Ab S324_16H
# B35: GpH7-B3 variant L234_07I/GpL16-k0 (antibody, human IgG1, kappa)
# heavy: not shown
# light: B1 light
# notes: also called Ho Ab L234_07I
# B36: GpH7-B3 variant G236_15Y/GpL16-k0 (antibody, human IgG1, kappa)
# heavy: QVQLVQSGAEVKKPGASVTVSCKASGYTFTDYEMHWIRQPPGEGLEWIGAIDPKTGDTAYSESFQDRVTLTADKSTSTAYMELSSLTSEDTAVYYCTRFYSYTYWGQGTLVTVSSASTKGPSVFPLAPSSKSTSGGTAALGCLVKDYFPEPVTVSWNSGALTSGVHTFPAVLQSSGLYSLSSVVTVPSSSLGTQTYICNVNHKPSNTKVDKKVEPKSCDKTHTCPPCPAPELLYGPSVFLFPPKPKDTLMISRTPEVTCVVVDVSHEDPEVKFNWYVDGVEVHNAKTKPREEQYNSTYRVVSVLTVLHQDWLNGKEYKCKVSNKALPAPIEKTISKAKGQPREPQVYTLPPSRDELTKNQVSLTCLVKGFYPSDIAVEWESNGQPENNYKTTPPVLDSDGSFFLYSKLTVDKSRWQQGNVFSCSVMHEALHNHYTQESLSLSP
# light: B1 light
# notes: also called Ho Ab G236_15Y
# B37: GpH7-B3 variant K334_01G/GpL16-k0 (antibody, human IgG1, kappa)
# heavy: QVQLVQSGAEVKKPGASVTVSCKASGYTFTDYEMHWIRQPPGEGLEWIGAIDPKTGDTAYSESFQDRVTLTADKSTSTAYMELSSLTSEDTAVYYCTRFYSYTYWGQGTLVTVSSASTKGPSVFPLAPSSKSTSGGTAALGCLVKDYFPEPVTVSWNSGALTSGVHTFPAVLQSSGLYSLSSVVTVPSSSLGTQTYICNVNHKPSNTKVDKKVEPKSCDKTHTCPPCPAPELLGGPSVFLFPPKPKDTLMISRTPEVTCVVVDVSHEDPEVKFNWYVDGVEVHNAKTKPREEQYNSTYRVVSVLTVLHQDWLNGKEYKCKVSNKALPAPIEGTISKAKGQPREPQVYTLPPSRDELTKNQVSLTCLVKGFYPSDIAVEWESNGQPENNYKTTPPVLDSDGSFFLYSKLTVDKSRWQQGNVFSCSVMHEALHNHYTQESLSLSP
# light: B1 light
# notes: also called Ho Ab K334_01G
# B38: GpH7-B17/GpL16-k0 (antibody, human IgG1, kappa)
# heavy: not shown
# light: B1 light
# notes: also called Ho Ab L234_09D; GpH7-B3 variant L234_09D/GpL16-k0
# B39: GpH7-B3 variant K326_08L/GpL16-k0 (antibody, human IgG1, kappa)
# heavy: not shown
# light: B1 light
# notes: also called Ho Ab K326_08L
# B40: GpH7-B3 variant I336_08L/GpL16-k0 (antibody, human IgG1, kappa)
# heavy: not shown
# light: B1 light
# notes: also called Ho Ab I336_08L
# B41: GpH7-B3-03-20W/GpL16-k0 (antibody, human IgG1, kappa)
# heavy: not shown
# light: B1 light
# notes: also called Ho Ab G236_20W; GpH7-B3 variant G236_20W/GpL16-k0
# B42: GpH7-B3 variant S267_02A/GpL16-k0 (antibody, human IgG1, kappa)
# heavy: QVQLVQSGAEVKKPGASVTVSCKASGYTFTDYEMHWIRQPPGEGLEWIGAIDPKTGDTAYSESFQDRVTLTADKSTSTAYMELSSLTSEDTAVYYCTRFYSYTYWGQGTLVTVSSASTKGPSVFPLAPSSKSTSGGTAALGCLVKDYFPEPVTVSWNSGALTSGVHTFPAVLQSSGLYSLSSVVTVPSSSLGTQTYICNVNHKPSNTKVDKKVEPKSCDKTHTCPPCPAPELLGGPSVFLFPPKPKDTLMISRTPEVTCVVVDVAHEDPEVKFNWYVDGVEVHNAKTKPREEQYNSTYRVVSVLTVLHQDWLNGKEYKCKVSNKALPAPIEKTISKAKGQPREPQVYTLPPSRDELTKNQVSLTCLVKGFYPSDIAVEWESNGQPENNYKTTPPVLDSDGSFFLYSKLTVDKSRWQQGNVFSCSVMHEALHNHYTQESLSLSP
# light: B1 light
# notes: also called Ho Ab S267_02A
# B43: GpH7-B3 variant T335_19Q/GpL16-k0 (antibody, human IgG1, kappa)
# heavy: not shown
# light: B1 light
# notes: also called Ho Ab T335_19Q
# B44: GpH7-B3 variant I336_06M/GpL16-k0 (antibody, human IgG1, kappa)
# heavy: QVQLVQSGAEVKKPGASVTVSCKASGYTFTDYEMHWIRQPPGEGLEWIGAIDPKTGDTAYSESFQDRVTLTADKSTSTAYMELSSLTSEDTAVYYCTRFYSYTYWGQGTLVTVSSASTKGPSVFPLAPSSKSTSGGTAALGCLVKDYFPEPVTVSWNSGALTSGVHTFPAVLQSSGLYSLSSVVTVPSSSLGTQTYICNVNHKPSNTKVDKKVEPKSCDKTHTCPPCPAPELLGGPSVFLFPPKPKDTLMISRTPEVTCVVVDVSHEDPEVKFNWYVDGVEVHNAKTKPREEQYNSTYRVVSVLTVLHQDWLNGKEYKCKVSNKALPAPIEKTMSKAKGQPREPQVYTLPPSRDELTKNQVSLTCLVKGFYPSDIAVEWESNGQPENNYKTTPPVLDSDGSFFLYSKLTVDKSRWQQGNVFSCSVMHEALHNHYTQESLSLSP
# light: B1 light
# notes: also called Ho Ab I336_06M
# B45: GpH7-B3 variant S337_20W/GpL16-k0 (antibody, human IgG1, kappa)
# heavy: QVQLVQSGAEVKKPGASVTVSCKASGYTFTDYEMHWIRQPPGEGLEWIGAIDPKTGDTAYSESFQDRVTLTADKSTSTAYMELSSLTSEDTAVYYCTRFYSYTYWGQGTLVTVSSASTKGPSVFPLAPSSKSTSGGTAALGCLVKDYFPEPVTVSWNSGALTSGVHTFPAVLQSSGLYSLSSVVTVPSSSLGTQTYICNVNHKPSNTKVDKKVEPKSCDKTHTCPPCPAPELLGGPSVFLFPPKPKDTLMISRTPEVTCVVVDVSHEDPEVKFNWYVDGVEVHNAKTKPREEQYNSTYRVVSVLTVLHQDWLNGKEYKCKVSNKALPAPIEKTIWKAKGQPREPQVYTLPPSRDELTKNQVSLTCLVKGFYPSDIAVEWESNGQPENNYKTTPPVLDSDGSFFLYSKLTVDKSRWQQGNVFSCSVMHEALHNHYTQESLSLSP
# light: B1 light
# notes: also called Ho Ab S337_20W
# B46: GpH7-B3 variant H268_18N/GpL16-k0 (antibody, human IgG1, kappa)
# heavy: not shown
# light: B1 light
# notes: also called Ho Ab H268_18N
# B47: GpH7-B3 variant P238_09D/GpL16-k0 (antibody, human IgG1, kappa)
# heavy: not shown
# light: B1 light
# notes: also called Ho Ab P238_09D
# B48: GpH7-B3 variant K334_09D/GpL16-k0 (antibody, human IgG1, kappa)
# heavy: not shown
# light: B1 light
# notes: also called Ho Ab K334_09D
# B49: GpH7-B3 variant E333_09D/GpL16-k0 (antibody, human IgG1, kappa)
# heavy: not shown
# light: B1 light
# notes: also called Ho Ab E333_09D
# Target: T1, FcγRIIIa extracellular domain with C-terminal His tag (human, UniProt P08637 17-208)
# T1 construct: extracellular domain; also called FcgRIIIa; 3a; not shown: His tag at the C terminus
# T1 sequence (P08637 17-208): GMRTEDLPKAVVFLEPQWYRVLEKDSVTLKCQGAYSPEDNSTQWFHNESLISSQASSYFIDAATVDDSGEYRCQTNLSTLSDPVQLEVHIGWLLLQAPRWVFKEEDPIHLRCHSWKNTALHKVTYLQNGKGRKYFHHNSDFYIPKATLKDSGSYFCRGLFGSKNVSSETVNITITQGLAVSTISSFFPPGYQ
# Assay: SPR relative binding; GpH7-B3/GpL16-k0 = 100
# Method: Analysis of interaction between objective antibody and the FcγR was carried out using Biacore T100 (GE Healthcare). HBS-EP+ (GE Healthcare) was used as the running buffer, and the measurement temperature was set to 25° C. Chips produced by immobilizing the antigen peptide by the amine coupling method to a Series S Sencor Chip CM5 (GE Healthcare), or alternatively, chips produced by allowing preliminarily biotinylated antigen peptides to interact with and immobilize onto a Series S Sensor Chip SA (certified) (GE Healthcare) were used. Antibodies of interest were captured onto an antigen peptide-immobilized chip, and allowed to interact to each FcγR diluted with running buffer. To regenerate and repeatedly use the chip, the antibodies captured on the chip were washed off by reacting 10 mM glycine-HCl, pH 1.5.
# The FcγR-binding activity of each antibody was assessed primarily using as an indicator the FcγR-binding activity and dissociation constant for FcγR.
row,Ho/Con_3a,Binder
1,87.1 % of control,B1
2,90.5 % of control,B2
3,107 % of control,B3
4,134 % of control,B4
5,64.7 % of control,B5
6,110 % of control,B6
7,91.8 % of control,B7
8,95.1 % of control,B8
9,99.5 % of control,B9
10,99.8 % of control,B10
11,108 % of control,B11
12,99 % of control,B12
13,95.4 % of control,B13
14,118 % of control,B14
15,97.2 % of control,B15
16,106 % of control,B16
17,49.9 % of control,B17
18,91.5 % of control,B18
19,102 % of control,B19
20,101 % of control,B20
21,88 % of control,B21
22,0.8 % of control,B22
23,100 % of control,B23
24,102 % of control,B24
25,90.9 % of control,B25

row,Ho/Con_3a,Binder
1,107 % of control,B26
2,100 % of control,B27
3,104 % of control,B28
4,64.7 % of control,B29
5,37.1 % of control,B30
6,104 % of control,B31
7,160 % of control,B32
8,97.6 % of control,B33
9,103 % of control,B34
10,98.2 % of control,B35
11,41.6 % of control,B36
12,104 % of control,B37
13,52.8 % of control,B38
14,114 % of control,B39
15,95.8 % of control,B40
16,58.3 % of control,B41
17,145 % of control,B42
18,97.7 % of control,B43
19,107 % of control,B44
20,87.8 % of control,B45
21,90.3 % of control,B46
22,-0.1 % of control,B47
23,150 % of control,B48
24,109 % of control,B49
